According to the RNAGym collection of RNA variant scans (doi:10.1093/molbev/msab373):

B1: Azoarcus group I ribozyme (parent)
chain: GUGCCUUGCGCCGGGAAACCACGCAAGGGAUGGUGUCAAAUUCGGCGAAACCUAAGCGCCCGCCCGGGCGUAUGGCAACGCCGAGCCAAGCUUCGGCGCCUGCGCCGAUGAAGGUGUAGAGACUAGACGGCACCCACCUAAGGCAAACGCUAUGGUGAAGGCAUAGUCCAGGGAGUGGCGAAAGUCACACAAACCGG

Variants of: B1
Assay: reverse-splicing fitness (ratio to wild type); higher = more active; in vitro selection; Mg2+ level not given
Outline: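 An in vitro group I ribozyme library with randomized positions was T7-transcribed and gel-purified. In triplicate, 10 pmol RNA in EPPS pH 7.5 was reacted with 50 pmoles of a 30-nt RNA substrate for 1 h at 37 °C across several added MgCl2 levels (1–48 mM), then stopped with EDTA. Products were reverse transcribed from a substrate-complementary primer, PCR-amplified and sequenced (HiSeq 4000). Fitness is a variant's read proportion after selection over that before, normalised to wild type.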

| Variant | reverse-splicing fitness |
| --- | --- |
| C82U A111C A120C A145G C150U C169A U176C | 0.014 |
| C82U A111C A120C C150A C169U U176C | 0.0181 |
| C82U A111C A120C C150A C169U U176A | 0.0178 |
| C82U A111C A120C C150A C169U U176G | 0.00677 |
| C82U A111C A120C C150U C169U U176G | 0.00584 |
| C82U A111C A120C C150U C169U U176A | 0.0178 |
| C82U A111C A120C C150U C169U U176C | 0.0196 |
| C82U A111C A120C C150U U176G | 0.00627 |
| C82U A111C A120C C150U U176A | 0.00888 |
| C82U A111C A120C C150U U176C | 0.0168 |
| C82U A111C A120C C150A C169G | 0.00864 |
| C82U A111C A120C C150A C169U | 0.0128 |
| C82U A111C A120C C150A C169A | 0.00879 |
| C82U A111C A120C A145U C150U C169G U176C | 0.0142 |
| C82U A111C A120C A145U C150U C169G U176G | 0.00521 |
| C82U A111C A120C A145U C150U C169G U176A | 0.0126 |
| C82G C150G C169U U176G | 0.00593 |
| C82G C150G C169U U176C | 0.0132 |
| C82G C150G C169U U176A | 0.00858 |
| C82U A111C A120C C150G C169A U176A | 0.00943 |
| C82U A111C A120C C150G C169A U176C | 0.00876 |

| Variant | reverse-splicing fitness |
| --- | --- |
| C82U A111C A120C C150G C169A U176G | 0.00618 |
| C82U A111C A120C A145C C150G | 0.00813 |
| C82U A111C A120C A145C C150A | 0.0072 |
| C82U A111C A120C A145C C150U | 0.0104 |
| C82U A111C A120C A145U C150A U176A | 0.00905 |
| C82U A111C A120C A145U C150A U176C | 0.0135 |
| C82U A111C A120C A145U C150A U176G | 0.00561 |
| C82U A111C A120C A145U C150A C169U U176C | 0.014 |
| C82U A111C A120C A145U C150A C169U U176G | 0.00706 |
| C82U A111C A120C A145U C150A C169U U176A | 0.0184 |
| C82G C150A C169U U176C | 0.0141 |
| C82G C150A C169U U176A | 0.0154 |
| C82G C150A C169U U176G | 0.0071 |
| C82U A111C A120C A145G C150G C169G U176A | 0.00967 |
| C82U A111C A120C A145G C150G C169G U176G | 0.00542 |
| C82U A111C A120C A145G C150G C169G U176C | 0.011 |
| C82U A111C A120C A145C C169G U176C | 0.015 |
| C82U A111C A120C A145C C169G U176G | 0.00555 |
| C82U A111C A120C A145C C169G U176A | 0.0195 |
| C82U A111C A120C A145G C150A | 0.01 |
| C82U A111C A120C A145G C150G | 0.0102 |

| Variant | reverse-splicing fitness |
| --- | --- |
| C82U A111C A120C A145G C150U | 0.0229 |
| C82U A111C | 0.251 |
| C82U A111C A120C A145G C150A C169A U176A | 0.0163 |
| C82U A111C A120C A145G C150A C169A U176G | 0.00718 |
| C82U A111C A120C A145G C150A C169A U176C | 0.0198 |
| C82U A111C A120C C150G C169A | 0.00879 |
| C82U A111C A120C C150G C169U | 0.00884 |
| C82U A111C A120C C150G C169G | 0.00626 |
| C82U A111C A120C A145G U176A | 0.0134 |
| C82U A111C A120C A145G U176C | 0.0243 |
| C82U A111C A120C A145G U176G | 0.00588 |
| C82U A111C A120C A145G C169A | 0.0092 |
| C82U A111C A120C A145G C169G | 0.00841 |
| C82U A111C A120C A145G C169U | 0.0129 |
| C82U A111C A120C A145C C150G C169A | 0.00861 |
| C82U A111C A120C A145C C150G C169U | 0.00884 |
| C82U A111C A120C A145C C150G C169G | 0.00681 |
| C82U A111C A120C A145G C150U U176A | 0.0113 |
| C82U A111C A120C A145G C150U U176C | 0.0186 |
| C82U A111C A120C A145G C150U U176G | 0.00635 |
| C82G C169U U176G | 0.00463 |

| Variant | reverse-splicing fitness |
| --- | --- |
| C82G C169U U176C | 0.0165 |
| C82G C169U U176A | 0.0135 |
| C82U A111C A120C A145G C150A U176A | 0.00976 |
| C82U A111C A120C A145G C150A U176C | 0.0208 |
| C82U A111C A120C A145G C150A U176G | 0.00689 |
| C82U A111C A120C A145U C150A C169A | 0.00776 |
| C82U A111C A120C A145U C150A C169U | 0.0101 |
| C82U A111C A120C A145U C150A C169G | 0.00745 |
| C82U A111C A120C C169G U176G | 0.00563 |
| C82U A111C A120C C169G U176A | 0.0173 |
| C82U A111C A120C C169G U176C | 0.0186 |
| C82U A111C A120C A145U C150A C169G U176A | 0.0132 |
| C82U A111C A120C A145U C150A C169G U176G | 0.00587 |
| C82U A111C A120C A145U C150A C169G U176C | 0.015 |
| C82U A111C A120C A145C C150G C169U U176A | 0.0102 |
| C82U A111C A120C A145C C150G C169U U176G | 0.00551 |
| C82U A111C A120C A145C C150G C169U U176C | 0.0117 |
| C82U A111C A120C A145G C150G C169U U176A | 0.0111 |
| C82U A111C A120C A145G C150G C169U U176G | 0.007 |
| C82U A111C A120C A145G C150G C169U U176C | 0.0122 |
